The source of these data is patent publication US20180066058A1 (published 2018).

Positions count from the first letter of the chain named.

Test [1] concerns the target T1, human ICOS-mFc (Chimerigen) (human, UniProt Q9Y6W8 21-140).
T1 construct: also called human ICOS receptor; human ICOS Receptor; not shown: mouse Fc of the bought construct
T1 sequence: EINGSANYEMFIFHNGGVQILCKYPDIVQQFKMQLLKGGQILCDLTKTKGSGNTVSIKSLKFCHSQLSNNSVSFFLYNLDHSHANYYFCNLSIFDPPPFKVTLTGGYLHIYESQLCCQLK
In words: HTRF neutralisation of Alexa 647 human B7-H2 binding to human ICOS-mFc; human IgG4.PE; mean, n = 4. How it is done: (§1) 5 μl of ICOS receptor (human ICOS-mFc, 20 nM, 5 nM final or mouse ICOS-mFc 4 nM, 1 nM final (Chimerigen)) was added to required wells. Plate was incubated for 1 hr at room temperature (RT).
(§2) Finally, 5 μl of anti-mouse IgG donor mAb (Southern Biotech) labelled with europium cryptate (Cis Bio), 40 nM, 10 nM final was added to each well and the assay was left in the dark at RT to incubate for a further 2 hours. After incubation, assay was read on Envision plate reader (Perkin Elmer) using a standard HTRF protocol. […] Titration curves and IC50 values [M] were plotted using Graphpad (Prism). IC50 values were calculated by first transforming the data using equation X=Log(X). The transformed data was then fitted using nonlinear regression, using fitting algorithm, log (inhibitor) vs. response—variable slope (four parameters).
Background: Time-resolved FRET reads energy transfer from a long-lived donor to a nearby acceptor.

Test [2] concerns the target T2, mouse ICOS-mFc (Chimerigen) (mouse, UniProt Q9WVS0 21-141, limits assumed).
T2 construct: also called mouse ICOS receptor; mouse ICOS Receptor; not shown: mouse Fc of the bought construct
T2 sequence: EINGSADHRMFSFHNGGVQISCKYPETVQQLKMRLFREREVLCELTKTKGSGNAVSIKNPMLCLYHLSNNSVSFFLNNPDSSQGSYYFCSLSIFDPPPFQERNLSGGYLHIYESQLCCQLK
In words: HTRF neutralisation of Alexa 647 mouse B7-H2 binding to mouse ICOS-mFc; human IgG4.PE; mean, n = 3. How it is done:
as §1, §2

For test [3], the target named is T1, human ICOS-mFc (Chimerigen). The experiment in a line: HTRF neutralisation of Alexa 647 human B7-H2 binding to human ICOS-mFc; human IgG1; mean, n = 4. How it is done: as §1, §2
The target of test [4] is T2, mouse ICOS-mFc (Chimerigen). In words: HTRF neutralisation of Alexa 647 mouse B7-H2 binding to mouse ICOS-mFc; human IgG1; mean, n = 3. As to the method: as §1, §2
Test [5] deals with T3, Human ICOS extracellular domain fused to human Fc (human, UniProt Q9Y6W8 21-140).
T3 construct: Dimeric protein made in house from NCBI NP_036224.1; also called hICOS; hICOS Fc; not shown: human Fc region
T3 sequence: T1 sequence
In words: SPR (ProteOn XPR36), human ICOS ECD-Fc captured, Fab analyte, pH 5.5, 37 C. As to the method:
(§3) In addition, a comparison was performed of antibody:antigen binding affinity at different pH values. As before, the dimeric human ICOS protein, presented as the extracellular domain of ICOS fused to a human Fc region, was captured on the anti-human Fc capture surface created using the 3 antibody cocktail, immobilised on the GLC biosensor chip by primary amine coupling. SPR analysis of recombinantly expressed anti-ICOS Fabs was carried out on the ProteOn XPR36 Array system (Biorad). The Fab fragments were used as analyte to generate binding sensorgrams, which were double referenced with a buffer injection (i.e., 0 nM). The subsequent referenced sensorgrams were fitted to the 1:1 model inherent to the ProteOn analysis software. […] Data were fitted to the 1:1 model.

In test [6] the target is T3, Human ICOS extracellular domain fused …. In words: SPR (ProteOn XPR36), human ICOS ECD-Fc captured, Fab analyte, pH 7.4, 37 C. How it is done: as §3
The target is the same in test [7]. The experiment in a line: SPR (ProteOn XPR36), Fc-tagged ICOS captured on anti-human IgG, Fab analyte, 25 C. As to the method: (§4) Fab affinities of the ICOS leads were generated by SPR using the ProteOn XPR3 6 (BioRad). An anti-human IgG capture surface was created on a GLC biosensor chip by primary amine coupling, immobilising three anti-human IgG antibodies (Jackson Labs 109-005-008, 109-006-008 and 309-006-008). […] Binding sensorgrams were double referenced using a buffer injection (i.e. 0 nM), and the data was fitted to the 1:1 model inherent to the ProteOn XPR36 analysis software. The assay was run at 25° C. and using HBS-EP as running buffer.

For test [8], the target named is T4, Mouse ICOS extracellular domain fused to human Fc (mouse, UniProt Q9WVS0 21-141).
T4 construct: Made in house from NCBI NP_059508.2; also called mICOS; mICOS Fc; not shown: human Fc region
T4 sequence: T2 sequence
Described as above. As to the method:
as §4

B1: STIM002-B human IgG4.PE (antibody, V domains shown)
VH: QVQLVQSGGEVKKPGASVKVSCKASGYTFTSYGFSWVRQAPGQGLEWMGWISAYNGNTNYAQKLQGRVTMTTDTSTSTAYMELRSLRSDDTAVYYCARSTYFYGSGTLYGMDVWGQGTTVTVSS
VL: DIVMTQSPLSLPVTPGEPASISCRSSQSLLHSDGYNCLDWYLQKPGQSPQLLIYLGSTRASGFPDRFSGSGSGTDFTLKISRVEAEDVGVYYCMQALQTPCSFGQGTKLEIK
notes: Human IgG4.PE (null-effector) format
Turning to B1, the IC50 in test [1] came out at 3.4 nM; in test [2], 43.9 nM.

B2: STIM002 human IgG1 (antibody, V domains shown)
VH: B1 VH
VL: DIVMTQSPLSLPVTPGEPASISCRSSQSLLHSDGYNYLDWYLQKPGQSPQLLIYLGSTRASGFPDRFSGSGSGTDFTLKISRVEAEDVGVYYCMQALQTPLSFGQGTKLEIKR
notes: Human IgG1 format
On to B2, for which the IC50 was 1.9 nM in test [3] and 6.9 nM in test [4].

B3: STIM002-B human IgG1 (antibody, V domains shown)
VH: B1 VH
VL: B2 VL with Y37C, L101C
notes: Human IgG1 format
Consider B3, for which the figures for the IC50 in test [3] and in test [4] were 3.6 nM and 30 nM, respectively.

B4: STIM002-B Fab (Fab, V domains shown)
VH: B1 VH
VL: B1 VL
notes: Recombinantly expressed purified Fab
As for B4, the figures for the equilibrium dissociation constant (Kd) in test [5] and in test [6] were 26.6 nM and 41.8 nM, respectively.

B5: STIM006 Fab (Fab, V domains shown)
VH: QVQLVESGGGLVKPGGSLRLSCAASGFTFSDYFMSWIRQAPGKGLEWISYISSSGSTIYYADSVRGRFTISRDNAKYSLYLQMNSLRSEDTAVYYCARDHYDGSGIYPLYYYYGLDVWGQGTTVTVSS
VL: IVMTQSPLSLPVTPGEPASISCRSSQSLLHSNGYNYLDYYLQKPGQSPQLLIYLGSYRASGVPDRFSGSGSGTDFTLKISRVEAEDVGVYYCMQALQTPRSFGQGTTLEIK
notes: Purified Fab
Regarding B5, the Kd in test [7] was determined as 13.8 nM; in test [8], 318 nM.

B6: STIM006 human IgG1 (antibody, V domains shown)
VH: B5 VH
VL: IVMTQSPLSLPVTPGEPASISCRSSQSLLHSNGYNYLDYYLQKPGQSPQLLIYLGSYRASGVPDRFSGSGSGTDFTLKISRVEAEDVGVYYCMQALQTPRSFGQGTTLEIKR
notes: Human IgG1 format
In test [3], B6 gave an IC50 of 2.2 nM.

B7: STIM009 human IgG1 (antibody, V domains shown)
VH: QVQLVESGGGLVKPGGSLRLSCAASGFTFSDYYMSWIRQAPGKGLEWVSYISSSGSTIYYADSVKGRFTISRDNAKNSLYLQINSLRAEDTAVYYCARDFYDILTDSPYFYYGVDVWGQGTTVTVSS
VL: not shown
notes: Human IgG1 format
In test [3], B7 had a 50% inhibitory concentration (IC50) of 30.5 nM.

B8: STIM009 human IgG4.PE (antibody, V domains shown)
VH: B7 VH
VL: not shown
notes: as for B1
Consider B8, for which, in test [1], the concentration for half-maximal inhibition (IC50) is 4.6 nM.

B9: STIM005 human IgG4.PE (antibody, V domains shown)
VH: QVQLVQSGAEVKKPGASVKVSCKASGYTFNSYGIIWVRQAPGQGLEWMGWISVHNGNTNCAQKLQGRVTMTTDTSTSTAYMELRSLRTDDTAVYYCARAGYDILTDFSDAFDIWGHGTMVTVSS
VL: DIQMTQSPSSLSASVGDRVTITCRASQNINNFLNWYQQKEGKGPKLLIYAASSLQRGIPSTFSGSGSGTDFTLTISSLQPEDFATYICQQSYGIPWVGQGTKVEIK
notes: as for B1
Regarding B9, the IC50 in test [1] was determined as 1.6 nM; in test [2] it was 0.3 nM.

B10: STIM005 human IgG1 (antibody, V domains shown)
VH: B9 VH
VL: DIQMTQSPSSLSASVGDRVTITCRASQNINNFLNWYQQKEGKGPKLLIYAASSLQRGIPSTFSGSGSGTDFTLTISSLQPEDFATYICQQSYGIPWVGQGTKVEIKR
notes: Human IgG1 format
Turning to B10, the values for the IC50 in test [3] and in test [4] were 2.5 nM and 0.3 nM, respectively.

B11: STIM003 human IgG4.PE (antibody, V domains shown)
VH: EVQLVESGGGVVRPGGSLRLSCVASGVTFDDYGMSWVRQAPGKGLEWVSGINWNGGDTDYSDSVKGRFTISRDNAKNSLYLQMNSLRAEDTALYYCARDFYGSGSYYHVPFDYWGQGILVTVSS
VL: EIVLTQSPGTLSLSPGERATLSCRASQSVSRSYLAWYQQKRGQAPRLLIYGASSRATGIPDRFSGDGSGTDFTLSISRLEPEDFAVYYCHQYDMSPFTFGPGTKVDIK
notes: as for B1
As for B11, the IC50 came to 1.2 nM in test [1] and 0.2 nM in test [2].

B12: STIM004 human IgG1 (antibody, V domains shown)
VH: B11 VH with V23A, V27L, A40V, G56D, D57N, S61A, F100Y, H108N, I118T
VL: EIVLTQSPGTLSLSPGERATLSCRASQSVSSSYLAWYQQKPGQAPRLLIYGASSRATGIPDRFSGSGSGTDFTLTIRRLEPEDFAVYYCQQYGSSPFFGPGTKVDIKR
notes: Human IgG1 format
On to B12, for which the IC50 in test [3] is 233 nM; in test [4] it was 22.1 nM.

B13: STIM001 human IgG4.PE (antibody, V domains shown)
VH: QVQVVQSGAEVKKPGASVKVSCKASGYTFSTFGITWVRQAPGQGLEWMGWISAYNGDTNYAQNLQGRVIMTTDTSTSTAYMELRSLRSDDTAVYYCARSSGHYYYYGMDVWGQGTTVTVSS
VL: DIVMTQSPLSLPVTPGEPASISCRSSQSLLHSNEYNYLDWYLQKPGQSPQLLIFLGSNRASGVPDRFSGSGSGTDFTLKITRVEAEDVGIYYCMQSLQTPLTFGGGTKVEIK
notes: as for B1
As to B13, the IC50 in test [1] was determined as 1.3 nM; in test [2], 4.7 nM.

What is called IC50 is the concentration at which inhibition is half-maximal. Higher therefore signals weaker potency in that assay. The term Kd denotes the equilibrium constant for the complex coming apart. A higher Kd goes with weaker binding.
